Experimental data taken from patent publication US20240043560A1 (Regeneron, published 2024).

B1: BSPSMA/CD28-002 (bispecific antibody, human IgG4 S228P, kappa)
heavy 1: QVQLVESGGGVVQPGRSLRLSCAASGFTFSSYGMHWVRQAPGKGLEWVAVISYAGNNKYYADSVKGRFTVSRDNSKKTLYLQMNSLRSEDTAVYYCAKDSYYDFLTDPDVLDIWGQGTMVTVSSASTKGPSVFPLAPCSRSTSESTAALGCLVKDYFPEPVTVSWNSGALTSGVHTFPAVLQSSGLYSLSSVVTVPSSSLGTKTYTCNVDHKPSNTKVDKRVESKYGPPCPPCPAPPVAGPSVFLFPPKPKDTLMISRTPEVTCVVVDVSQEDPEVQFNWYVDGVEVHNAKTKPREEQFNSTYRVVSVLTVLHQDWLNGKEYKCKVSNKGLPSSIEKTISKAKGQPREPQVYTLPPSQEEMTKNQVSLTCLVKGFYPSDIAVEWESNGQPENNYKTTPPVLDSDGSFFLYSRLTVDKSRWQEGNVFSCSVMHEALHNHYTQKSLSLSLGK
heavy 2: EVQLVESGGGLVQPGGSLRLSCAASGFTFSTYAMTWVRQAPGKGLEWVSFISGSGDNTYYADSVKGRFTISRDNSKNTLYLQMNSLRADDSAIYHCAKDSGYCSSGGCSLYFYYGMDVWGQGTTVTVSSASTKGPSVFPLAPCSRSTSESTAALGCLVKDYFPEPVTVSWNSGALTSGVHTFPAVLQSSGLYSLSSVVTVPSSSLGTKTYTCNVDHKPSNTKVDKRVESKYGPPCPPCPAPPVAGPSVFLFPPKPKDTLMISRTPEVTCVVVDVSQEDPEVQFNWYVDGVEVHNAKTKPREEQFNSTYRVVSVLTVLHQDWLNGKEYKCKVSNKGLPSSIEKTISKAKGQPREPQVYTLPPSQEEMTKNQVSLTCLVKGFYPSDIAVEWESNGQPENNYKTTPPVLDSDGSFFLYSRLTVDKSRWQEGNVFSCSVMHEALHNRFTQKSLSLSPGK
light: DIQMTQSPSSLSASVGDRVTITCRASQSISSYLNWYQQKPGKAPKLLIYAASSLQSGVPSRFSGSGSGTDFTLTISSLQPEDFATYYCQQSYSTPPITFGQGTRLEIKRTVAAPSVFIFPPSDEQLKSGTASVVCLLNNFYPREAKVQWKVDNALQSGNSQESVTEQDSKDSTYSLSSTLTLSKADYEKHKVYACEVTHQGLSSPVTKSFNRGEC
B2: BSPSMA/CD28-003 (bispecific antibody, human IgG4 S228P, kappa)
heavy 1: QVQLVESGGGVVQPGRSLRLSCAASGFTFSSYGMHWVRQAPGKGLEWVAVISYAGNNKYYADSVKGRFTVSRDNSKKTLYLQMNSLRSEDTAVYYCAKDSYYDFLTDPDVLDIWGQGTMVTVSSASTKGPSVFPLAPCSRSTSESTAALGCLVKDYFPEPVTVSWNSGALTSGVHTFPAVLQSSGLYSLSSVVTVPSSSLGTKTYTCNVDHKPSNTKVDKRVESKYGPPCPPCPAPPVAGPSVFLFPPKPKDTLMISRTPEVTCVVVDVSQEDPEVQFNWYVDGVEVHNAKTKPREEQFNSTYRVVSVLTVLHQDWLNGKEYKCKVSNKGLPSSIEKTISKAKGQPREPQVYTLPPSQEEMTKNQVSLTCLVKGFYPSDIAVEWESNGQPENNYKTTPPVLDSDGSFFLYSRLTVDKSRWQEGNVFSCSVMHEALHNHYTQKSLSLSLGK
heavy 2: EVQLVESGGGLVQPGGSLRLSCAASGFTFSRNNMHWVRQAPGKGLEYVSGISSNGGRTYYADSVKGRFTISRDNSKNTLYLQMGGLRAADMAVYFCTRDDELLSFDYWGQGTLVTVSSASTKGPSVFPLAPCSRSTSESTAALGCLVKDYFPEPVTVSWNSGALTSGVHTFPAVLQSSGLYSLSSVVTVPSSSLGTKTYTCNVDHKPSNTKVDKRVESKYGPPCPPCPAPPVAGPSVFLFPPKPKDTLMISRTPEVTCVVVDVSQEDPEVQFNWYVDGVEVHNAKTKPREEQFNSTYRVVSVLTVLHQDWLNGKEYKCKVSNKGLPSSIEKTISKAKGQPREPQVYTLPPSQEEMTKNQVSLTCLVKGFYPSDIAVEWESNGQPENNYKTTPPVLDSDGSFFLYSRLTVDKSRWQEGNVFSCSVMHEALHNRFTQKSLSLSPGK
light: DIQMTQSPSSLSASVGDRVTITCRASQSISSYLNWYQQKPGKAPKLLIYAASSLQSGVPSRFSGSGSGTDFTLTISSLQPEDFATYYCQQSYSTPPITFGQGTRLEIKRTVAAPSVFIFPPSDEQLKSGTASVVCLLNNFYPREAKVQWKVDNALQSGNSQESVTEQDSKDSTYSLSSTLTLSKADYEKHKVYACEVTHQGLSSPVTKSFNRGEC
notes: also called anti-PSMAxCD28 bispecific antibody
B3: BSPSMA/CD28-001 (bispecific antibody, human IgG4 S228P, kappa)
heavy 1: QVQLVESGGGVVQPGRSLRLSCAASGFTFSSYGMHWVRQAPGKGLEWVAFMSYDGSNKFYSDSVKGRFTISRDNSRKMLFLQMNNLRAEDTAVYYCARDQYYDFLTDHGVFDYWGQGTLVTVSSASTKGPSVFPLAPCSRSTSESTAALGCLVKDYFPEPVTVSWNSGALTSGVHTFPAVLQSSGLYSLSSVVTVPSSSLGTKTYTCNVDHKPSNTKVDKRVESKYGPPCPPCPAPPVAGPSVFLFPPKPKDTLMISRTPEVTCVVVDVSQEDPEVQFNWYVDGVEVHNAKTKPREEQFNSTYRVVSVLTVLHQDWLNGKEYKCKVSNKGLPSSIEKTISKAKGQPREPQVYTLPPSQEEMTKNQVSLTCLVKGFYPSDIAVEWESNGQPENNYKTTPPVLDSDGSFFLYSRLTVDKSRWQEGNVFSCSVMHEALHNHYTQKSLSLSLGK
heavy 2: QVQLQESGPGLVKPSETLSLTCTVSGGSISSYYWSWIRQPPGKGLEWIGYIYYSGITHYNPSLKSRVTISVDTSKIQFSLKLSSVTAADTAVYYCARWGVRRDYYYYGMDVWGQGTTVTVSSASTKGPSVFPLAPCSRSTSESTAALGCLVKDYFPEPVTVSWNSGALTSGVHTFPAVLQSSGLYSLSSVVTVPSSSLGTKTYTCNVDHKPSNTKVDKRVESKYGPPCPPCPAPPVAGPSVFLFPPKPKDTLMISRTPEVTCVVVDVSQEDPEVQFNWYVDGVEVHNAKTKPREEQFNSTYRVVSVLTVLHQDWLNGKEYKCKVSNKGLPSSIEKTISKAKGQPREPQVYTLPPSQEEMTKNQVSLTCLVKGFYPSDIAVEWESNGQPENNYKTTPPVLDSDGSFFLYSRLTVDKSRWQEGNVFSCSVMHEALHNRFTQKSLSLSPGK
light: not shown
notes: also called mAb1; REGN5678

Tests used:
[1] = molecular target: full-length human CD28 (hCD28, amino acids M1 to S220, accession #P10747) on engineered reporter T-cells (human, UniProt P10747 19-220); assay: cell-based or functional assay
[2] = molecular target: T1, CD28 on the surface of Human T cells (human, UniProt P10747 19-220); assay: flow cytometry, human CD4+ T cells; CD4+ T cells
T1 construct: whole, on cells; also called CD28 on T cells; all T cells

[3] = molecular target: T2, PSMA on the surface of cell lines expressing PSMA (C4-2, 22RV1) (human, UniProt Q04609 1-750); assay: flow cytometry, C4-2 cells expressing PSMA
T2 construct: whole, on cells; also called C4-2 cells; 22RV1 cells

[4] = molecular target: T1, CD28 on the surface of Human T cells; assay: flow cytometry, human CD8+ T cells; CD8+ T cells
[5] = molecular target: T3, 6h.hPSMA (recombinant Human PSMA/FOLH1 Protein, R&D, Catalog #4234-ZN) (human, UniProt Q04609 44-750); assay: SPR, Biacore T-200, antibody captured by anti-human Fc, 6h.hPSMA injected, 25°C
T3 construct: Bought protein; also called hPSMA with an N-terminal polyhistidine tag; hPSMA.6H; not shown: N-terminal polyhistidine tag (6h)
Protocol: (§1) The different concentrations of 6h.hPSMA were injected over the monoclonal antibody captured surface at a flow rate of 50 μL/minute. Association of 6h.hPSMA to the captured monoclonal antibody was monitored for 3 minutes and the dissociation of 6h.hPSMA in HBS-P++ running buffer was monitored for 10 minutes. Kinetic association (kₐ) and dissociation (kd) rate constants were determined by fitting the real-time sensorgrams to a 1:1 binding model using Scrubber 2.0c curve fitting software (BioLogic Software). Binding dissociation equilibrium constants (KD) and dissociative half-lives (t1/2) were calculated from the kinetic rate constants as: KD(M)=kd/kₐ, and t1/2 (min)=0.693/kd/60

hCD28.mmh [6] = molecular target: T4, hCD28.mmh (human, UniProt P10747 19-152); assay: SPR, Biacore T-200, antibody captured by anti-human Fc, hCD28.mmh injected, 25°C
T4 construct: also called hCD28.6H; not shown: neither explained nor printed
Protocol: as §1, with “Different concentrations” for “The different concentrations”, “of hCD28.mmh” for “of 6h.hPSMA”, “for 5” for “for 3”, “fitting software.” for “fitting software (BioLogic Software).”

[7] = molecular target: T2, PSMA on the surface of cell lines …; assay: flow cytometry, 22RV1 cells expressing PSMA
[8] = molecular target: T3, 6h.hPSMA (recombinant Human PSMA/FOLH1 …); assay: SPR, Biacore, captured antibody, hPSMA.6H (block headed 20 nM), 37°C; 20 nM hPSMA.6H block, 37 C
[9] = molecular target: T3, 6h.hPSMA (recombinant Human PSMA/FOLH1 …); assay: SPR, Biacore, captured antibody, hPSMA.6H (block headed 10 nM), 37°C
[10] = molecular target: T3, 6h.hPSMA (recombinant Human PSMA/FOLH1 …); assay: SPR, Biacore, captured antibody, hPSMA.6H (block headed 20 nM), 37°C
[11] = molecular target: T1, CD28 on the surface of Human T cells; assay: flow cytometry, human T cells (all T cells); all T cells
hCD28.mmh [12] = molecular target: T4, hCD28.mmh; assay: SPR, Biacore, captured antibody, soluble hCD28 injected, 37°C

T3 sequence (Q04609 44-750 limits assumed): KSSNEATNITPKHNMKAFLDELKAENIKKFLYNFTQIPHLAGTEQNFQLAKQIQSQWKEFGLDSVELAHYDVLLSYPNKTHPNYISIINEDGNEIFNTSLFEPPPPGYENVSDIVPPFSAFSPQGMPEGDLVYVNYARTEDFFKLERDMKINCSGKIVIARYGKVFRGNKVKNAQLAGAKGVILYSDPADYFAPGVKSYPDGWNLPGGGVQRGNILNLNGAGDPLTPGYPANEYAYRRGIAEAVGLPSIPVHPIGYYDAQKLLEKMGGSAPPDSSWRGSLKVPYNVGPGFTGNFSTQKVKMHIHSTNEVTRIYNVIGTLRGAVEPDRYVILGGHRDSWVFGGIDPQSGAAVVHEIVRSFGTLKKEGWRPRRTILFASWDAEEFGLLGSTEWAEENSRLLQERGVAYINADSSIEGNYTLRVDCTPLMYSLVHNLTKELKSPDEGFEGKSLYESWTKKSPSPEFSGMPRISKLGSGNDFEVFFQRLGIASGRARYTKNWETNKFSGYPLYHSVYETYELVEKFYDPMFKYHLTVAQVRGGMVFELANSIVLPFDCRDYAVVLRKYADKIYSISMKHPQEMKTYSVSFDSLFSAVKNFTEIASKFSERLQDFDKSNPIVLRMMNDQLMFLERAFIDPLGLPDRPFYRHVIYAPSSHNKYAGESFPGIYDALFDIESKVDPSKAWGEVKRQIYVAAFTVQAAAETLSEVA
T2 sequence (Q04609 whole entry): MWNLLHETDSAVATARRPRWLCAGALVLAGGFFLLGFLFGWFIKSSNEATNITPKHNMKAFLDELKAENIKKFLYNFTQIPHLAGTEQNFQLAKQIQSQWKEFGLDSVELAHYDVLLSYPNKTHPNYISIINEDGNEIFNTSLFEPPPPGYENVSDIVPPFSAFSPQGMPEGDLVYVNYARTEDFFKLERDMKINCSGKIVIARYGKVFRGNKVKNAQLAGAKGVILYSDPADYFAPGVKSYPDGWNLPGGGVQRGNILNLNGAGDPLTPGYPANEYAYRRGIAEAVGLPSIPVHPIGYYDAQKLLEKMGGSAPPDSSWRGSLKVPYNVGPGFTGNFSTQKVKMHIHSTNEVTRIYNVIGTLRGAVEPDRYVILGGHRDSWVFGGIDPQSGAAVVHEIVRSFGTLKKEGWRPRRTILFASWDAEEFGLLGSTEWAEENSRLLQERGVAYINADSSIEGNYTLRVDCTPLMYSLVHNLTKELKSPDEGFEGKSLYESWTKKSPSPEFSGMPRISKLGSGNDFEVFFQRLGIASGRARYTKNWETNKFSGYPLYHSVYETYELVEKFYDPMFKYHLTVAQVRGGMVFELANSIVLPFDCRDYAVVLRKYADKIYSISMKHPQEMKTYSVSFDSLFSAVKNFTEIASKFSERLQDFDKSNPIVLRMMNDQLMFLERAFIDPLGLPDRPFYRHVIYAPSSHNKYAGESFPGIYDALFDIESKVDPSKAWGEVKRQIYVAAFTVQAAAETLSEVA

Binder | EC50 [M], luciferase activity in engineered reporter T-cells with HEK293/hCD20/hPSMA, presence of TCR stimulation [1] [M] | Fold induction, luciferase activity in engineered reporter T-cells with HEK293/hCD20, absence of TCR stimulation [1] [fold] | Fold induction, luciferase activity in engineered reporter T-cells with HEK293/hCD20, presence of TCR stimulation [1] [fold] | Fold induction, luciferase activity in engineered reporter T-cells with HEK293/hCD20/hPSMA, absence of TCR stimulation [1] [fold] | Fold induction, luciferase activity in engineered reporter T-cells with HEK293/hCD20/hPSMA, presence of TCR stimulation [1] [fold] | EC50 [2] [nM] | EC50 [3] [nM] | EC50 [4] [nM] | Kd [5] [nM] | T½ [5] [h] | koff [5] [s⁻¹] | kon [5] [M⁻¹ s⁻¹] | Kd (hCD28.mmh [6]) [nM] | T½ (hCD28.mmh [6]) [min] | koff (hCD28.mmh [6]) [s⁻¹] | kon (hCD28.mmh [6]) [M⁻¹ s⁻¹] | EC50 [7] [nM] | also measured
B1 | 4.57e-10 | 0.87 | 0.92 | 0.89 | 13.6 |  |  |  |  |  |  |  |  |  |  |  |  | 
B2 | 2.78e-10 | 0.94 | 0.95 | 0.98 | 24.5 | 167 | 1.5 | 180 | 0.137 | 5.01 | 3.85e-05 | 280000 | 207 | 8.2 | 0.00141 | 6790 | 6.33 | 
B3 | 1.72e-10 | 0.81 | 1 | 1.04 | 16.1 | 50.9 | 3.87 | 58.9 | 0.251 | 3.91 | 4.92e-05 | 196000 | 144 | 3.5 | 0.00326 | 22600 | 3.05 | koff [8]: 6.36e-05 s⁻¹; Kd [9]: 0.396 nM; koff [9]: 7.93e-05 s⁻¹; kon [9]: 200000 M⁻¹ s⁻¹; t½ [9]: 2.43 h; Kd [10]: 0.217 nM; kon [10]: 293000 M⁻¹ s⁻¹; t½ [10]: 3.03 h; EC50 [11]: 48 nM; Kd (hCD28.mmh [12]): 272 nM; koff (hCD28.mmh [12]): 0.0067 s⁻¹; kon (hCD28.mmh [12]): 24600 M⁻¹ s⁻¹; t½ (hCD28.mmh [12]): 1.7 min
